Blank lines part the entries; values can stand above or below the binder they belong to.
Columns and labels:
[1] = biological target: Recombinant Aβ1-42 (rAβ1-42 peptides) in the Thioflavin T fibril formation assay (UniProt P05067 672-713); assay: cell-based or functional assay
[2] = biological target: T1, amyloid-β Aβ(M1-42) peptide, structures along the aggregation pathway (Aβ1-42 protofibrils); assay: dot blot of aggregation time points (FIG. 18)
T1 construct: Expressed in E. coli
Excerpt: (A) Aβ₁₋₄₂ aggregation in a thioflavin T fluorescence assay guided sample collection (red circles) for a dot blot assay. (B) Samples from these time points were spotted on PVDF membranes and blotted with an anti-Aβ mAb to detect total Aβ₁₋₄₂, or with 4a8.e11, 3f2.e10, or 7b6.b12. (C) Bar graph showing quantitation of 4a8.e11 reactive material at indicated timepoints. (D) Bar graph showing quantitation of 3f2.e10 reactive material at indicated timepoints. (E) Bar graph showing quantitation of 7b6.b12 reactive material at indicated timepoints. The spots were quantified with ImageJ and normalized to total Aβ₁₋₄₂.
For kinetic experiments, aliquots of the purified Aβ42 were resuspended in 6M guanidinium hydrochloride and subjected to gel filtration on a Superdex Peptide column in 20 mM sodium phosphate buffer, pH 8, with 200 μM EDTA. The monomer-containing peak was then lyophilized and subjected to a second round of resuspension in 6M guanidinium hydrochloride and gel filtration on a Superdex Peptide column in 20 mM sodium phosphate buffer, pH 8, with 200 μM EDTA. […] Fluorescence measurements were made at regular intervals using FlexStation III (Molecular Devices) with excitation and emission at 440 and 480 nm, respectively. Each experimental point is the mean of the fluorescence signal of 6 wells containing aliquots of the same solution. […]

Sequence of Recombinant Aβ1-42 (rAβ1-42 peptides) in the Thioflavin T fibril formation assay (P05067 672-713 limits assumed): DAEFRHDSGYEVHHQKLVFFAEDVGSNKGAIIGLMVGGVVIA
T1 sequence (peptide, as listed by the source): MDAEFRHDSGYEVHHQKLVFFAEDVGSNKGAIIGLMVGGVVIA

T50 (time in minutes for 50% inhibition of fibril formation) [1]: 40.2 min
binding result [2]: binds
B1: monoclonal antibody 7b6.b12 (antibody, V domains shown)
VH: EVQLQESGAELVKPGASVKISCKVSGYTFTDHTIHWMKQRPEQGLEWIGYIYPRDGSTKYNEKFKGKATLTADKSSSTAYMQLNSLTSEDSAVYFCARPYDYAWFAYWGQGTLVTVSA
VL: DILLTQSPAILSVSPGERVSFSCRASQSIGTSIHWYQQRTNGSPRLLIKYASESISGIPSRFSGSGSGTDFTLSINSVESEDIADYYCQQSNSWPFTFGSGTKLEIK
notes: Mouse hybridoma mAb raised against NUCB1-capped hIAPP protofibrils; kappa light chain; also called mAb 7b6.b12

T50 (time in minutes for 50% inhibition of fibril formation) [1]: 43.2 min
B2: monoclonal antibody 5c9.a2 (antibody, V domains shown)
VH: EVQLQESGPVLVKPGASVKMSCKASGYTFTDYYMNWVKQSHGKSLEWIGVINPYNGGTSYNQKFKGKATLTVDKSSSTAYMELNSLTSEDSAVYYCASLRRRTDYFDYWGQGTTLTVSS
VL: DIVMTQSHKFMSTSVGDRVSITCKASQDVGTAVAWYQQKPGQSPKLLIYWASTRHTGVPDRFTGSGSGTDFTLTISNVQSEDLADYFCQQYSSYPLTFGAGTKLELK

T50 (time in minutes for 50% inhibition of fibril formation) [1]: 37.9 min
binding result [2]: binds
B3: monoclonal antibody 4a8.e11 (antibody, V domains shown)
VH: EVQLQESGGGLVKPGGSLKLSCAASGFTFSDYGMHWVRQAPEKGLEWVAYISSGSSTVYCADTVKGRFTISRDNAKNTLFLQMTSLRSEDTAMYYCARRWGYFDYWGQGTTLTVSS
VL: DIKMTQSPSSMYASLGERVTFTCKASQDINSFLSWFQQKPGKSPKTLIYRANRLVDGVPSRFSGSGSGQDYSLTITSLEFEDMGIYYCLQYDEFPYTFGGGTKLEIK
notes: Mouse hybridoma mAb raised against NUCB1-capped hIAPP protofibrils; kappa light chain; also called mAb 4a8.e11

T50 (time in minutes for 50% inhibition of fibril formation) [1]: 42.6 min
B4: monoclonal antibody 3f2.e10 (antibody, V domains shown)
VH: EVQLQESGGGLVQPKGSLKLSCAASGFSFNTYAMNWVRQAPGKGLEWVARIRSKSNNYATYYADSVKDRFTISRDDSESMLYLQMNNLKTEDTAMYYCVRLGAMDYWGQGTSVTVSS
VL: DIVMTQSQKFMSTSVGDRVSVTCKASQNVGTNVAWYQQKPGQSPKALIYSASYRYSGVPDRFTGSGSGTDFTLTISNVQSEDLAEYFCQQYNSYPLTFGAGTKLEL

T50 (time in minutes for 50% inhibition of fibril formation) [1]: 40.3 min
B5: monoclonal antibody 5a8.b11 (antibody, V domains shown)
VH: EVQLQESGPELVKPGASVKIPCKASGYTFTDYNMDWVKQSHGKSLEWIGDINPNNGGTIYNQKFKGKATLTVDKSSSTAYMELRSLTSEDTAVYYCARKGERGFDYWGQGTTLTVSS
VL: ENVLTQSPAIMSASLGEKVTMSCRASSSVNYMYWYQQKSDASPKLWIYYTSNLAPGVPARFSGSGSGNSYSLTISSMEGEDAATYYCQQFTSSPSTFGAGTKLELK

T50 (time in minutes for 50% inhibition of fibril formation) [1]: 60.7 min
B6: monoclonal antibody 4b1.h9 (antibody, V domains shown)
VH: EVQLQESGPVLVKPGASVKMSCKASGYTFTDYYMNWVKQSHGKSLEWIGVINPYNGGTSYNQKFKGKATLTVDKSSSTAYMELNSLTSEDSAVYYCARRRGYAMDYWGQGTSVTVSS
VL: DIQMTQSPASLSASVGETVTITCRASENIYSYLAWYQQKQGKSPQLLVYNAKTLAEGVPSRFSGSGSGTQFSLKINSLQPEDFGSYYCQHHYGTPYTFGGGTNLEIK
